Data from patent US20130078720, “METHOD FOR INDUCING PLURIPOTENCY IN HUMAN SOMATIC CELLS WITH PRDM14 OR NFRKB” (Agency for Science, Technology and Research, published 2013).

Biological target: T1, PRDM14 DNA binding domain (C-terminal 179 aa) (Homo sapiens, UniProt Q9GZV8 SEQ:393-571)
T1 sequence: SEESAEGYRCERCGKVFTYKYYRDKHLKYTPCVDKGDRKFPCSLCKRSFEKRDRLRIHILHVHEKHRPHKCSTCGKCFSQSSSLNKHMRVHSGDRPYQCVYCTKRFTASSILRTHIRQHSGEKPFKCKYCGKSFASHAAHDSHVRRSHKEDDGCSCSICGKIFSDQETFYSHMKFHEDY
Test: EMSA; 100 ng protein, 1 ng probe, poly(dI-dC), 10 mM ZnCl2, 60 mM KCl, pH 7.9, room temperature
Settings: tags: His tag, pET42b, E. coli BL21; label: 5' biotin on sense strand
Description: Recombinant PRDM14 DNA binding domain (His tagged) was used in the gel shift assays. Briefly, a cDNA encoding 179 amino acids of the C terminus of PRDM14 was cloned into the pET42b (Novagen) vector using cloning sites NdeI and XhoI. The fusion construct was transformed into BL21 competent cells (Strategene) according to the supplier's instructions. Purified proteins were dialyzed against a dialysis buffer (10 mM Tris-HCl, pH 7.4, 100 mM NaCl, 10 mM ZnCl₂ and 10% glycerol) at 4° C. for 6 hr. Oligonucleotides (Proligo) labeled with biotin at the 5′ end of the sense strands were annealed with the antisense strands in the annealing buffer (10 mM Tris-HCl, pH8.0, 50 mM NaCl, 1 mM EDTA) and purified with agarose gel DNA extraction kit (Qiagen). DNA concentrations were determined by the NanoDrop ND-1000 spectrophotometer. The gel shift assays were performed using a LightShift Chemiluminescent EMSA kit (Pierce Biotechnologies). 100 ng of protein was added to a 5 μl reaction mixture (final) containing 1 μg of poly(dI-dC) (Amersham), 1 ng of biotin-labeled oligonucleotide in the binding buffer (12 mM HEPES, pH7.9, 10% glycerol, 60 mM KCl, 0.25 mM EDTA, 1 mM DTT, 10 mM ZnCl₂). Binding reaction mixtures were incubated for 20 min at room temperature. […] Gels were transferred to Biodyne B nylon membranes (Pierce Biotechnologies) using western blot techniques and detected using chemiluminescence.

B1: CR2 probe (dsDNA)
DNA 1: CAGCTCTAACCCTAAACAAGTGCTCAACCCTTGAATGGGCCTGGATGGCT
DNA 2: AGCCATCCAGGCCCATTCAAGGGTTGAGCACTTGTTTAGGGTTAGAGCTG
B1: binds.
